In article PMC6921018, “The Loop of the TPR1 Subdomain of Phi29 DNA Polymerase Plays a Pivotal Role in Primer-Terminus Stabilization at the Polymerization Active Site” (Biomolecules, 2019):

T1: Bacteriophage Phi29 terminal protein (TP) (bacteriophage Phi29, UniProt P03681 1-266)
T1 sequence (looked up): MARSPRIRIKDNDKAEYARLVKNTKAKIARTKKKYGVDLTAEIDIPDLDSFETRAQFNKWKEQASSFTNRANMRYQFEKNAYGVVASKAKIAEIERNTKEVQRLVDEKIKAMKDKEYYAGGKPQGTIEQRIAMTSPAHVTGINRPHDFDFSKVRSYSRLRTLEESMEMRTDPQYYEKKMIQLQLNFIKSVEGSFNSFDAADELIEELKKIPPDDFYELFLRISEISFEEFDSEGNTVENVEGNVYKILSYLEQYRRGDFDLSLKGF


Tests used:
[1] = target: T1, Bacteriophage Phi29 terminal protein …; experiment: cell-based or functional assay
[2] = target: T1, Bacteriophage Phi29 terminal protein …; experiment: cell-based or functional assay; remark: listed apart in the source

Binder	TP-dAMP formation with a limiting amount of TP (15 nM) in competition with the catalytically inactive DNA polymerase mutant D249E, at a D249E/wild-type ratio of 1 (interference assay) [1] [fold]	TP-dAMP formation with a limiting amount of TP in competition with the DNA polymerase mutant D249E, relative to that without competitor (interference assay) [1] [%]	protein-primed initiation (TP-dAMP formation) on Phi29 TP-DNA template, activity with respect to the wild-type enzyme (100) [2]
Bacteriophage Phi29 DNA polymerase, wild-type (enzyme) MKHMPRKMYSCDFETTTKVEDCRVWAYGYMNIEDHSEYKIGNSLDEFMAWVLKVQADLYFHNLKFDGAFIINWLERNGFKWSADGLPNTYNTIISRMGQWYMIDICLGYKGKRKIHTVIYDSLKKLPFPVKKIAKDFKLTVLKGDIDYHKERPVGYKITPEEYAYIKNDIQIIAEALLIQFKQGLDRMTAGSDSLKGFKDIITTKKFKKVFPTLSLGLDKEVRYAYRGGFTWLNDRFKEKEIGEGMVFDVNSLYPAQMYSRLLPYGEPIVFEGKYVWDEDYPLHIQHIRCEFELKEGYIPTIQIKRSRFYKGNEYLKSSGGEIADLWLSNVDLELMKEHYDLYNVEYISGLKFKATTGLFKDFIDKWTYIKTTSEGAIKQLAKLMLNSLYGKFASNPDVTGKVPYLKENGALGFRLGEEETKDPVYTPMGVFITAWARYTTITAAQACYDRIIYCDTDSIHLTGTEIPDVIKDIVDPKKLGYWAHESTFKRAKYLRQKTYIQDIYMKEVDGKLVEGSPDDYTDIKFSVKCAGMTDKIKKEVTFENFKVGFSRKMKPKPVQVPGGVVLVDDTFTIK	2		
Phi29 DNA polymerase mutant F309A (enzyme, bacteriophage Phi29) MKHMPRKMYSCDFETTTKVEDCRVWAYGYMNIEDHSEYKIGNSLDEFMAWVLKVQADLYFHNLKFDGAFIINWLERNGFKWSADGLPNTYNTIISRMGQWYMIDICLGYKGKRKIHTVIYDSLKKLPFPVKKIAKDFKLTVLKGDIDYHKERPVGYKITPEEYAYIKNDIQIIAEALLIQFKQGLDRMTAGSDSLKGFKDIITTKKFKKVFPTLSLGLDKEVRYAYRGGFTWLNDRFKEKEIGEGMVFDVNSLYPAQMYSRLLPYGEPIVFEGKYVWDEDYPLHIQHIRCEFELKEGYIPTIQIKRSRAYKGNEYLKSSGGEIADLWLSNVDLELMKEHYDLYNVEYISGLKFKATTGLFKDFIDKWTYIKTTSEGAIKQLAKLMLNSLYGKFASNPDVTGKVPYLKENGALGFRLGEEETKDPVYTPMGVFITAWARYTTITAAQACYDRIIYCDTDSIHLTGTEIPDVIKDIVDPKKLGYWAHESTFKRAKYLRQKTYIQDIYMKEVDGKLVEGSPDDYTDIKFSVKCAGMTDKIKKEVTFENFKVGFSRKMKPKPVQVPGGVVLVDDTFTIK		< 50	25 % of wild-type
Phi29 DNA polymerase mutant R306A (enzyme, bacteriophage Phi29) MKHMPRKMYSCDFETTTKVEDCRVWAYGYMNIEDHSEYKIGNSLDEFMAWVLKVQADLYFHNLKFDGAFIINWLERNGFKWSADGLPNTYNTIISRMGQWYMIDICLGYKGKRKIHTVIYDSLKKLPFPVKKIAKDFKLTVLKGDIDYHKERPVGYKITPEEYAYIKNDIQIIAEALLIQFKQGLDRMTAGSDSLKGFKDIITTKKFKKVFPTLSLGLDKEVRYAYRGGFTWLNDRFKEKEIGEGMVFDVNSLYPAQMYSRLLPYGEPIVFEGKYVWDEDYPLHIQHIRCEFELKEGYIPTIQIKASRFYKGNEYLKSSGGEIADLWLSNVDLELMKEHYDLYNVEYISGLKFKATTGLFKDFIDKWTYIKTTSEGAIKQLAKLMLNSLYGKFASNPDVTGKVPYLKENGALGFRLGEEETKDPVYTPMGVFITAWARYTTITAAQACYDRIIYCDTDSIHLTGTEIPDVIKDIVDPKKLGYWAHESTFKRAKYLRQKTYIQDIYMKEVDGKLVEGSPDDYTDIKFSVKCAGMTDKIKKEVTFENFKVGFSRKMKPKPVQVPGGVVLVDDTFTIK		< 50	8 % of wild-type
Phi29 DNA polymerase mutant Y310A (enzyme, bacteriophage Phi29) MKHMPRKMYSCDFETTTKVEDCRVWAYGYMNIEDHSEYKIGNSLDEFMAWVLKVQADLYFHNLKFDGAFIINWLERNGFKWSADGLPNTYNTIISRMGQWYMIDICLGYKGKRKIHTVIYDSLKKLPFPVKKIAKDFKLTVLKGDIDYHKERPVGYKITPEEYAYIKNDIQIIAEALLIQFKQGLDRMTAGSDSLKGFKDIITTKKFKKVFPTLSLGLDKEVRYAYRGGFTWLNDRFKEKEIGEGMVFDVNSLYPAQMYSRLLPYGEPIVFEGKYVWDEDYPLHIQHIRCEFELKEGYIPTIQIKRSRFAKGNEYLKSSGGEIADLWLSNVDLELMKEHYDLYNVEYISGLKFKATTGLFKDFIDKWTYIKTTSEGAIKQLAKLMLNSLYGKFASNPDVTGKVPYLKENGALGFRLGEEETKDPVYTPMGVFITAWARYTTITAAQACYDRIIYCDTDSIHLTGTEIPDVIKDIVDPKKLGYWAHESTFKRAKYLRQKTYIQDIYMKEVDGKLVEGSPDDYTDIKFSVKCAGMTDKIKKEVTFENFKVGFSRKMKPKPVQVPGGVVLVDDTFTIK		< 50	30 % of wild-type
Phi29 DNA polymerase deletion mutant Δ6 lacking residues Arg306-Lys311 (enzyme, bacteriophage Phi29) MKHMPRKMYSCDFETTTKVEDCRVWAYGYMNIEDHSEYKIGNSLDEFMAWVLKVQADLYFHNLKFDGAFIINWLERNGFKWSADGLPNTYNTIISRMGQWYMIDICLGYKGKRKIHTVIYDSLKKLPFPVKKIAKDFKLTVLKGDIDYHKERPVGYKITPEEYAYIKNDIQIIAEALLIQFKQGLDRMTAGSDSLKGFKDIITTKKFKKVFPTLSLGLDKEVRYAYRGGFTWLNDRFKEKEIGEGMVFDVNSLYPAQMYSRLLPYGEPIVFEGKYVWDEDYPLHIQHIRCEFELKEGYIPTIQIKGNEYLKSSGGEIADLWLSNVDLELMKEHYDLYNVEYISGLKFKATTGLFKDFIDKWTYIKTTSEGAIKQLAKLMLNSLYGKFASNPDVTGKVPYLKENGALGFRLGEEETKDPVYTPMGVFITAWARYTTITAAQACYDRIIYCDTDSIHLTGTEIPDVIKDIVDPKKLGYWAHESTFKRAKYLRQKTYIQDIYMKEVDGKLVEGSPDDYTDIKFSVKCAGMTDKIKKEVTFENFKVGFSRKMKPKPVQVPGGVVLVDDTFTIK		< 50	3 % of wild-type
